From publication PMC7331137

How the values were obtained:
[1] = target: IntC-CCre tagged with FLAG (UniProt P06956)
[2] = target: IntC-CCre tagged with FLAG (UniProt P06956); remark: listed apart in the source
[3] = target: IntC-CCre tagged with FLAG (UniProt P06956); remark: listed apart in the source

DsRed fluorescence from a LoxP-stop-LoxP DsRed reporter in HEK293T cells cotransfected with both constructs (none with either alone) [1]: 99%
TdTomato fluorescence in striatal neurons of Dlx6-CCre-IRES-eGFP reporter mice injected with NCre-IntN-mTagBFP2 lentivirus [2]: 78.3%
TdTomato expression in neurons of the central amygdala after injection of FuG-E-NCre-IntN retrograde lentivirus into the dorsal striatum of Dlx6-CCre-IRES-eGFP::LoxP-stop-LoxP-TdTomato mice [3]: 89.9%
Substance: NCre-IntN tagged with HA (from UniProt P06956 1-59)
